The target in data set [1] is L1 ENp (L1 ORF2 endonuclease domain) (Homo sapiens) (UniProt O00370). Kind of data set: cleavage_in_vitro. Conditions: turnover number; Mg greatly preferred over Mn.
The test system of data set [2] is L1 ENp E43A E43A (Homo sapiens). Kind of data set: cleavage_in_vitro. To be noted: slightly leaky; 5 mM MgCl2.

Chain of UniProt O00370 (O00370 1-239): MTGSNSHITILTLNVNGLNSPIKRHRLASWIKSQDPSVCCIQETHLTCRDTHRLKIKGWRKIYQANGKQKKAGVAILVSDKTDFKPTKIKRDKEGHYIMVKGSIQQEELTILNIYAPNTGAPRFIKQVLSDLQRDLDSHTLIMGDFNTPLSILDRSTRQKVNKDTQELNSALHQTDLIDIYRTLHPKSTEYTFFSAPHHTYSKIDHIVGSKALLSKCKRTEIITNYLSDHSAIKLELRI

Regarding pBS plasmid, native, the activity (phosphodiester bond cleavages per hour) in data set [1] came to 2. Moreover, the cleavage activity (fold less than wild type) in data set [2] came to 20.

For the origin of these results see patent US20030121063.
